Target: T1, WT-EphB1-YFP (mouse EphB1 C-terminal YFP-tagged) (mouse, UniProt Q8CBF3 18-984)
T1 sequence (looked up): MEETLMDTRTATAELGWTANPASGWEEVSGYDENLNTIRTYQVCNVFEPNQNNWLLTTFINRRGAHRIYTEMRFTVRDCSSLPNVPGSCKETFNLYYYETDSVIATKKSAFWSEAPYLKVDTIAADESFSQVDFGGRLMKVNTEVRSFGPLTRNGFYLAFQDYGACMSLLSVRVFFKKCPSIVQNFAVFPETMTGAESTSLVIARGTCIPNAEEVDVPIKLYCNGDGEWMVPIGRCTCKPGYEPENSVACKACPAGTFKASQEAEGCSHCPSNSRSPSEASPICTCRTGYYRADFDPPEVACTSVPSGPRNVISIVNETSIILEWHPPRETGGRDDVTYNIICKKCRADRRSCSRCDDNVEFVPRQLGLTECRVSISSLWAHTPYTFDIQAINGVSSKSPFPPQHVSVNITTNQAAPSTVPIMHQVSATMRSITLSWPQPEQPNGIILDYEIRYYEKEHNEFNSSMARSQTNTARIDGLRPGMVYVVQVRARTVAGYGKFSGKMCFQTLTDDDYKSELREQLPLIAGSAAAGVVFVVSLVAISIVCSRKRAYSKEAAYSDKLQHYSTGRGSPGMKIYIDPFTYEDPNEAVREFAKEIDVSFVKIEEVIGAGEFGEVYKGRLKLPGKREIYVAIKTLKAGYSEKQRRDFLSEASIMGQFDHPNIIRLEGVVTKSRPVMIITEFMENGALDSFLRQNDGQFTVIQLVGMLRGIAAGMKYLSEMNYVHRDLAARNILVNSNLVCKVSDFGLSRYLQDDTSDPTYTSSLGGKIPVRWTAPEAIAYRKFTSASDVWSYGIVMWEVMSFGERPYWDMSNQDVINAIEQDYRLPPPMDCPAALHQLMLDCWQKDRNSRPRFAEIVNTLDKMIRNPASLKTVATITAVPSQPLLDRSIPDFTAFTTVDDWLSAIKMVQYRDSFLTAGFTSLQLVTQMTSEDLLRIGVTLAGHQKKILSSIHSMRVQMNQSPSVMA
Assay: FRET or BRET

B1: WT-Cav-1-CFP (C-terminal CFP-tagged Cav-1) (natural protein, UniProt Q03135 1-178, looked up)
chain: MSGGKYVDSEGHLYTVPIREQGNIYKPNNKAMADELSEKQVYDAHTKEIDLVNRDPKHLNDDVVKIDFEDVIAEPEGTHSFDGIWKASFTTFTVTKYWFYRLLSALFGIPMALIWGIYFAILSFLHIWAVVPCIKSFLIEIQCISRVYSIYVHTVCDPLFEAVGKIFSNVRINLQKEI
fold FRET intensity against EphB1^∆808-815-YFP with WT-Cav-1-CFP: 4 fold
